Several values for one entry are separate records, joined by “and”; a condition that tells them apart may be missing. Equal values may be shown once. Bridge positions count the residues as written; N and C are the ends. * marks the point of attachment. Fmoc = O=C(OCC1c2ccccc2-c2ccccc21)*; Pentanoyl = CCCCC(=O)*

The source of these data is patent publication US20190177366A1 (published 2019).

B1: Compound 90 (peptide)
peptide: Ac-WCLWNLKRIGSQCWF-OH
modifications: disulfide 2-13
SMILES: CC[C@H](C)[C@@H]1NC(=O)[C@H](CCCNC(=N)N)NC(=O)[C@H](CCCCN)NC(=O)[C@H](CC(C)C)NC(=O)[C@H](CC(N)=O)NC(=O)[C@H](Cc2c[nH]c3ccccc23)NC(=O)[C@H](CC(C)C)NC(=O)[C@@H](NC(=O)[C@H](Cc2c[nH]c3ccccc23)NC(C)=O)CSSC[C@@H](C(=O)N[C@@H](Cc2c[nH]c3ccccc23)C(=O)N[C@@H](Cc2ccccc2)C(=O)O)NC(=O)[C@H](CCC(N)=O)NC(=O)[C@H](CO)NC(=O)CNC1=O
B2: Compound 21 (peptide)
peptide: Ac-CWNLKRIGSQGC-NH2
modifications: disulfide 1-12 (inferred)
B3: Compound 66 (peptide)
peptide: H-WCLWNLKRIGSQCWF-OH
modifications: disulfide 2-13
SMILES: CC[C@H](C)[C@@H]1NC(=O)[C@H](CCCNC(=N)N)NC(=O)[C@H](CCCCN)NC(=O)[C@H](CC(C)C)NC(=O)[C@H](CC(N)=O)NC(=O)[C@H](Cc2c[nH]c3ccccc23)NC(=O)[C@H](CC(C)C)NC(=O)[C@@H](NC(=O)[C@@H](N)Cc2c[nH]c3ccccc23)CSSC[C@@H](C(=O)N[C@@H](Cc2c[nH]c3ccccc23)C(=O)N[C@@H](Cc2ccccc2)C(=O)O)NC(=O)[C@H](CCC(N)=O)NC(=O)[C@H](CO)NC(=O)CNC1=O
B4: Compound 39 (peptide)
peptide: Ac-CWNLKRIGSQGCW-NH2
modifications: disulfide 1-12 (inferred)
B5: Compound 95 (peptide)
peptide: Ac-FCLWNLKRIGSQCEY-NH2
modifications: disulfide 2-13
SMILES: CC[C@H](C)[C@@H]1NC(=O)[C@H](CCCNC(=N)N)NC(=O)[C@H](CCCCN)NC(=O)[C@H](CC(C)C)NC(=O)[C@H](CC(N)=O)NC(=O)[C@H](Cc2c[nH]c3ccccc23)NC(=O)[C@H](CC(C)C)NC(=O)[C@@H](NC(=O)[C@H](Cc2ccccc2)NC(C)=O)CSSC[C@@H](C(=O)N[C@@H](CCC(=O)O)C(=O)N[C@@H](Cc2ccc(O)cc2)C(N)=O)NC(=O)[C@H](CCC(N)=O)NC(=O)[C@H](CO)NC(=O)CNC1=O
B6: Compound 88 (peptide)
peptide: Ac-FCLWNLARIGSQCWF-NH2
modifications: disulfide 2-13
SMILES: CC[C@H](C)[C@@H]1NC(=O)[C@H](CCCNC(=N)N)NC(=O)[C@H](C)NC(=O)[C@H](CC(C)C)NC(=O)[C@H](CC(N)=O)NC(=O)[C@H](Cc2c[nH]c3ccccc23)NC(=O)[C@H](CC(C)C)NC(=O)[C@@H](NC(=O)[C@H](Cc2ccccc2)NC(C)=O)CSSC[C@@H](C(=O)N[C@@H](Cc2c[nH]c3ccccc23)C(=O)N[C@@H](Cc2ccccc2)C(N)=O)NC(=O)[C@H](CCC(N)=O)NC(=O)[C@H](CO)NC(=O)CNC1=O
B7: Compound 40 (peptide)
peptide: Ac-GSGCWNLKRIGSQGCW-NH2
modifications: disulfide 4-15 (inferred)
B8: Compound 22 (peptide)
peptide: Ac-GSGCWNLKRIGSQGC-NH2
modifications: disulfide 4-15 (inferred)
B9: Compound 89 (peptide)
peptide: H-WCLWNLKRIGSQCWF-NH2
modifications: disulfide 2-13
SMILES: CC[C@H](C)[C@@H]1NC(=O)[C@H](CCCNC(=N)N)NC(=O)[C@H](CCCCN)NC(=O)[C@H](CC(C)C)NC(=O)[C@H](CC(N)=O)NC(=O)[C@H](Cc2c[nH]c3ccccc23)NC(=O)[C@H](CC(C)C)NC(=O)[C@@H](NC(=O)[C@@H](N)Cc2c[nH]c3ccccc23)CSSC[C@@H](C(=O)N[C@@H](Cc2c[nH]c3ccccc23)C(=O)N[C@@H](Cc2ccccc2)C(N)=O)NC(=O)[C@H](CCC(N)=O)NC(=O)[C@H](CO)NC(=O)CNC1=O
B10: Compound 87 (peptide)
peptide: Ac-GCLWNLKRIGSQCWF-NH2
modifications: disulfide 2-13
SMILES: CC[C@H](C)[C@@H]1NC(=O)[C@H](CCCNC(=N)N)NC(=O)[C@H](CCCCN)NC(=O)[C@H](CC(C)C)NC(=O)[C@H](CC(N)=O)NC(=O)[C@H](Cc2c[nH]c3ccccc23)NC(=O)[C@H](CC(C)C)NC(=O)[C@@H](NC(=O)CNC(C)=O)CSSC[C@@H](C(=O)N[C@@H](Cc2c[nH]c3ccccc23)C(=O)N[C@@H](Cc2ccccc2)C(N)=O)NC(=O)[C@H](CCC(N)=O)NC(=O)[C@H](CO)NC(=O)CNC1=O
B11: Compound 98 (peptide)
peptide: Fmoc-GSGCWNLKRIGSQGC-NH2
modifications: disulfide 4-15
SMILES: CC[C@H](C)[C@@H]1NC(=O)[C@H](CCCNC(=N)N)NC(=O)[C@H](CCCCN)NC(=O)[C@H](CC(C)C)NC(=O)[C@H](CC(N)=O)NC(=O)[C@H](Cc2c[nH]c3ccccc23)NC(=O)[C@@H](NC(=O)CNC(=O)[C@H](CO)NC(=O)CNC(=O)OCC2c3ccccc3-c3ccccc32)CSSC[C@@H](C(N)=O)NC(=O)CNC(=O)[C@H](CCC(N)=O)NC(=O)[C@H](CO)NC(=O)CNC1=O
B12: Compound 119 (peptide)
peptide: Ac-PWNLVRIGL-NH2
B13: Compound 48 (peptide)
peptide: Ac-DLMPWNLVRIG-NH2
B14: Compound 35 (peptide)
peptide: Ac-DLMPWNLVRIGLLR-NH2
B15: Compound 44 (peptide)
peptide: Ac-DAMPWNLVRIGLLR-NH2
B16: Compound 54 (peptide)
peptide: Ac-DLMPWNLVRIGLLA-NH2
B17: Compound 41 (peptide)
peptide: Ac-DLMPANLVRIGLLR-NH2
B18: Compound 61 (peptide)
peptide: Ac-DLMPWNAVRIGLLR-NH2
B19: Compound 59 (peptide)
peptide: Ac-DLMPWNLVAIGLLR-NH2
B20: Compound 42 (peptide)
peptide: Ac-DLMAWNLVRIGLLR-NH2
B21: Compound 62 (peptide)
peptide: Ac-DLMPWALVRIGLLR-NH2
B22: Compound 56 (peptide)
peptide: Ac-DLMPWNLVRIGALR-NH2
B23: Compound 43 (peptide)
peptide: Ac-DLAPWNLVRIGLLR-NH2
B24: Compound 60 (peptide)
peptide: Ac-DLMPWNLARIGLLR-NH2
B25: Compound 58 (peptide)
peptide: Ac-DLMPWNLVRAGLLR-NH2
B26: Compound 47 (peptide)
peptide: Ac-DLMPWNLVRIGL-NH2
B27: Compound 120 (peptide)
peptide: Ac-WNLVRIGL-NH2
B28: Compound 46 (peptide)
peptide: Ac-DLMPWNLVRIGLL-NH2
B29: Compound 112 (peptide)
peptide: Pentanoyl-WNLVRIGLTR-NH2
SMILES: CCCCC(=O)N[C@@H](Cc1c[nH]c2ccccc12)C(=O)N[C@@H](CC(N)=O)C(=O)N[C@@H](CC(C)C)C(=O)N[C@H](C(=O)N[C@@H](CCCNC(=N)N)C(=O)N[C@H](C(=O)NCC(=O)N[C@@H](CC(C)C)C(=O)N[C@H](C(=O)N[C@@H](CCCNC(=N)N)C(N)=O)[C@@H](C)O)[C@@H](C)CC)C(C)C
B30: Compound 114 (peptide)
peptide: Pentanoyl-WNLVRIGTLR-NH2
SMILES: CCCCC(=O)N[C@@H](Cc1c[nH]c2ccccc12)C(=O)N[C@@H](CC(N)=O)C(=O)N[C@@H](CC(C)C)C(=O)N[C@H](C(=O)N[C@@H](CCCNC(=N)N)C(=O)N[C@H](C(=O)NCC(=O)N[C@H](C(=O)N[C@@H](CC(C)C)C(=O)N[C@@H](CCCNC(=N)N)C(N)=O)[C@@H](C)O)[C@@H](C)CC)C(C)C
B31: Compound 113 (peptide)
peptide: Pentanoyl-WNLVRIGTTR-NH2
SMILES: CCCCC(=O)N[C@@H](Cc1c[nH]c2ccccc12)C(=O)N[C@@H](CC(N)=O)C(=O)N[C@@H](CC(C)C)C(=O)N[C@H](C(=O)N[C@@H](CCCNC(=N)N)C(=O)N[C@H](C(=O)NCC(=O)N[C@H](C(=O)N[C@H](C(=O)N[C@@H](CCCNC(=N)N)C(N)=O)[C@@H](C)O)[C@@H](C)O)[C@@H](C)CC)C(C)C
B32: Compound 49 (peptide)
peptide: Ac-DLMPWNLVRI-NH2

T1 sequence (A8T644 31-152 limits assumed, chain 1 of 2): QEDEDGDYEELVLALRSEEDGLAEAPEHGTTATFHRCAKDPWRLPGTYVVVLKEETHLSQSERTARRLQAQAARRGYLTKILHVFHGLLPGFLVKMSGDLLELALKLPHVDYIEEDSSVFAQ
T1 sequence (A8T644 other isoform, or with tags, fused parts or gaps limits assumed, chain 2 of 2): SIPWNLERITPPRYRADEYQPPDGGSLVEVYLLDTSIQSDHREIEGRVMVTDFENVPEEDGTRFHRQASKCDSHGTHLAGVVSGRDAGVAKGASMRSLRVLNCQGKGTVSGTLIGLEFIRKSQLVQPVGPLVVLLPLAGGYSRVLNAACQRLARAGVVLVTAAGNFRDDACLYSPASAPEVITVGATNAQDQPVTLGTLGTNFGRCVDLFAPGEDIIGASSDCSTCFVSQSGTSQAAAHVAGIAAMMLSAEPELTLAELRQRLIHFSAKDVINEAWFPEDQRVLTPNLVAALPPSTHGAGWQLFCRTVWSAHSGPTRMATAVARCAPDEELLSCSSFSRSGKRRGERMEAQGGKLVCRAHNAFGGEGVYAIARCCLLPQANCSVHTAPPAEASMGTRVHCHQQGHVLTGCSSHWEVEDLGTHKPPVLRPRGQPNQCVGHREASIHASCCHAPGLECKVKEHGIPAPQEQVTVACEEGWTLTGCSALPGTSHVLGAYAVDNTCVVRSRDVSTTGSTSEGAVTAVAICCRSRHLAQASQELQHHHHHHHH

One assay concerns the target T1, His-tagged, full-length PCSK9 (human, UniProt A8T644 31-152; Q8NBP7 153-692).
T1 construct: Target protein of the PCSK9/EGF(A) TR-FRET assay (10 nM); also called His-PCSK9; proprotein convertase subtilisin/kexin type 9
As to the kind of experiment: TR-FRET competition; competitor EGF(A)-Fc on His-PCSK9. A general note: In TR-FRET formats the signal depends on donor and acceptor labels being close together.
B1 registered an IC50 of 29.2 µM. That is a double-digit micromolar value.

The molecule B2 returned an IC50 of more than 50 µM.

For B3, the IC50 was 31.3 µM. This counts as double-digit micromolar.

Molecule B4 displayed an IC50 of more than 50 µM.

For B5, the IC50 is more than 50 µM.

With B6, the IC50 was 17.9 µM.

B7 returned an IC50 of 5.96 µM.

Turning to B8, the IC50 was 42 µM and > 50 µM.

B9 came in with an IC50 of 6.9 µM.

For the molecule B10, the IC50 was more than 50 µM.

In turn, B11 showed an IC50 of 37.6 µM.

A further assay deals with T2, human PCSK9 (proprotein convertase subtilisin/kexin type 9), His-tagged, full-length (human, UniProt A8T644 31-152; Q8NBP7 153-692, limits assumed).
T2 construct: The secreted protein is the prodomain plus the catalytic/Cys-rich part (N-terminus S153) after autocleavage; also called His-PCSK9; NARC-1
T2 sequence (A8T644 31-152 limits assumed, chain 1 of 2): as the sequence (A8T644 31-152 limits assumed, chain 1 of 2) above
T2 sequence (A8T644 other isoform, or with tags, fused parts or gaps limits assumed, chain 2 of 2): as the sequence (A8T644 other isoform, or with tags, fused parts or gaps limits assumed, chain 2 of 2) above
As to the kind of experiment: TR-FRET competition vs EGF(A)-Fc on His-PCSK9.
Regarding B12, the IC50 was more than 50 µM.

B13: the IC50 was more than 50 µM.

B14 displayed an IC50 of more than 50 µM.

Turning to B15, the IC50 is more than 50 µM.

B16 gave an IC50 of more than 50 µM.

As to B17, the IC50 was more than 50 µM.

For the molecule B18, the IC50 was more than 50 µM.

Regarding B19, the IC50 is more than 50 µM.

As for B20, the IC50 was more than 50 µM.

In turn, B21 displayed a concentration for half-maximal inhibition (IC50) of more than 50 µM.

Take B22: the IC50 is more than 50 µM.

B23 displayed an IC50 of more than 50 µM.

B24 came in with an IC50 of more than 50 µM.

In turn, B25 returned an IC50 of more than 50 µM.

Turning to B26, the IC50 is more than 50 µM.

In turn, B27 showed an IC50 of more than 50 µM.

Consider B28, for which the IC50 is more than 50 µM.

Regarding B29, the IC50 was more than 50 µM.

Regarding B30, the IC50 is more than 50 µM.

As to B31, the IC50 is more than 50 µM.

In the case of B32, the IC50 was more than 50 µM.

What is called IC50 is the point on the concentration scale where inhibition reaches its midpoint.
